Results as given in paper PMC5019495.

Columns and labels:
[1] = molecular target: Siz1^(167–449)-ΔN18Smt3^K19R/D68RΔGG97/98-L-E-His6 (yeast) (UniProt Q04195)
[2] = molecular target: Siz1^(167–449) (yeast) (UniProt Q04195)
[3] = molecular target: Siz1^(167–508)-ΔN18Smt3^K19R/D68RΔGG97/98-L-E-His6 (yeast) (UniProt Q04195)
[4] = molecular target: Siz1^(167–508) (yeast) (UniProt Q04195)
[5] = molecular target: Siz1^(167–449)-ΔN18Smt3^K19RΔGG97/98-L-E-His6 (yeast) (UniProt Q04195)
Chain of Siz1^(167–449)-ΔN18Smt3^K19RΔGG97/98-L-E-His6 (yeast) (Q04195 whole entry, looked up, stated change not applied, tested part not stated): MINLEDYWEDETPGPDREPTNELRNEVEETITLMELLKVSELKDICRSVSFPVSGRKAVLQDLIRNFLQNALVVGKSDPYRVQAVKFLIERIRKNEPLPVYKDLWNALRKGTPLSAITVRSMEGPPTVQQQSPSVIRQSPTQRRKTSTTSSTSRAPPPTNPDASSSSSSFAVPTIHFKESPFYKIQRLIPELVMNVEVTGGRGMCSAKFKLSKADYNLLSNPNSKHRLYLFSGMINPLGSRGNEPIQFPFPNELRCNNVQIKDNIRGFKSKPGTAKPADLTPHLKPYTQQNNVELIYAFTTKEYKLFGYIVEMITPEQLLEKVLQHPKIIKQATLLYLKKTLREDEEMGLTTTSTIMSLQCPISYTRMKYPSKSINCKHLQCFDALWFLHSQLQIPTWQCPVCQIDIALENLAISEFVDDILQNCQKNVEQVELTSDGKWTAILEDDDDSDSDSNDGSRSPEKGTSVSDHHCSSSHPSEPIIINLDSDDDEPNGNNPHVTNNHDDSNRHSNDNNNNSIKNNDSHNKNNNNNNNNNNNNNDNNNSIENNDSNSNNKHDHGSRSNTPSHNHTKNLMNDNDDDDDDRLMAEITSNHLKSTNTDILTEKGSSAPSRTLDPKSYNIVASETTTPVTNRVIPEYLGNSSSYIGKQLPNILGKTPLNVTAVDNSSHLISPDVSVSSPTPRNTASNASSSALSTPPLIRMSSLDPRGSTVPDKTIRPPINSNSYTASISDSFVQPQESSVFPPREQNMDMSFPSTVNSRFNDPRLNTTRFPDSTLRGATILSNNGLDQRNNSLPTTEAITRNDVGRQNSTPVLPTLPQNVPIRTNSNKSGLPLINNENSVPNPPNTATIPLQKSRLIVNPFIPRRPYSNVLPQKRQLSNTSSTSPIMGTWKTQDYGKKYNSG

Chain of Siz1^(167–508) (yeast) (Q04195 167-508): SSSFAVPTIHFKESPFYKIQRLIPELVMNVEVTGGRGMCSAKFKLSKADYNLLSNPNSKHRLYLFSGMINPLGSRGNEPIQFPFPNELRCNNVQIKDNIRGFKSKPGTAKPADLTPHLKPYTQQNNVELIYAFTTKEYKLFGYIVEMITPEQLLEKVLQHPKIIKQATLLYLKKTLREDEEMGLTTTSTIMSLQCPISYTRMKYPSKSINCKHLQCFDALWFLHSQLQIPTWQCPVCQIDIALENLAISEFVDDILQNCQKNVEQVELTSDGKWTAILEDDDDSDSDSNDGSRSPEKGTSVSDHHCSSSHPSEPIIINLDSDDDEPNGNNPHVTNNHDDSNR
Chain of Siz1^(167–449) (yeast) (Q04195 167-449): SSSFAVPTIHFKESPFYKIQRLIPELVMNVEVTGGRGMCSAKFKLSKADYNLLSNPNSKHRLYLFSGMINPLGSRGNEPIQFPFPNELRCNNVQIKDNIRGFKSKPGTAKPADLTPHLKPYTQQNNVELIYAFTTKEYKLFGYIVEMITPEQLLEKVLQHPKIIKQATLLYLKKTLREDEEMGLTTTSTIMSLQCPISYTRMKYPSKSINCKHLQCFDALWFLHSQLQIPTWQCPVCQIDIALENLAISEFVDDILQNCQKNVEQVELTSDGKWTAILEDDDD
Chain of Siz1^(167–449)-ΔN18Smt3^K19R/D68RΔGG97/98-L-E-His6 (yeast) (Q04195 whole entry, looked up, stated change not applied, tested part not stated): as the sequence (Q04195 whole entry, looked up, stated change not applied, tested part not stated) above
Chain of Siz1^(167–508)-ΔN18Smt3^K19R/D68RΔGG97/98-L-E-His6 (yeast) (Q04195 whole entry, looked up, stated change not applied, tested part not stated): as above

Ubc9^K153R-Smt3^K11C/D68R-Alexa488 thioester (from UniProt P50623 1-157; Q12306 1-101) (complex)
Km of the E2-SUMO thioester, K127 product [1]: 4.4 µM
Km of the E2-SUMO thioester, K164 product [1]: 1.02 µM
Km of the E2-SUMO thioester, K127 product, no additional SUMO [2]: 1.23 µM
Km of the E2-SUMO thioester, K127 product, with 1.5-fold excess Δ18Smt3ΔGGHIS [2]: 1.84 µM
Km of the E2-SUMO thioester, K164 product, no additional SUMO [2]: 0.91 µM
Km of the E2-SUMO thioester, K164 product, with 1.5-fold excess Δ18Smt3ΔGGHIS [2]: 1.44 µM
Km of the E2-SUMO thioester, K127 product [3]: 2.07 µM
Km of the E2-SUMO thioester, K127 product, no additional SUMO [4]: 2.34 µM
Km of the E2-SUMO thioester, K127 product, with 1.5-fold excess Δ18Smt3ΔGGHIS [4]: 1.15 µM
Km of the E2-SUMO thioester, K164 product, no additional SUMO [4]: 0.91 µM
Km of the E2-SUMO thioester, K127 product [5]: 0.48 µM
